Reference: article PMC12016517, “Transcriptional regulation of two redundant 3-bromo-4-hydroxybenzoate catabolic operons via two different regulatory modes in Pigmentiphaga kullae strain H8” (Applied and Environmental Microbiology, 2025)
Several values for one entry are separate records, joined by “and”; a condition that tells them apart may be missing. Equal values may be shown once.

Key:
[1] = target: T1, BhbR2 (MarR-family transcription factor); experiment: SPR (Biacore T200, protein immobilized on CM7 chip, steady-state affinity); format: binding, Pigmentiphaga kullae
T1 construct: C-terminal His-tagged BhbR2 (179 amino acids), expressed in E. coli BL21(DE3)

[2] = target: T2, BhbR1 (LysR-type transcriptional regulator); experiment: as above; format: binding, Pigmentiphaga kullae
T2 construct: C-terminal His-tagged BhbR1 (302 amino acids), expressed in E. coli BL21(DE3)

[3] = tested on: T3, BhbR1 (LysR-type regulator) (Pigmentiphaga kullae H8), ORF:3710a82b; experiment: SPR; conditions: EMSA BhbR1: 100 mM Tris-HCl pH 8.0, 50 mM KCl, 5% glycerol, 1 mM DTT, BhbR2: 50 mM Tris-HCl pH 8.0, 30 mM KCl, 1 mM EDTA, 5 mM DTT, 25 C, 30 min. …
T3 sequence: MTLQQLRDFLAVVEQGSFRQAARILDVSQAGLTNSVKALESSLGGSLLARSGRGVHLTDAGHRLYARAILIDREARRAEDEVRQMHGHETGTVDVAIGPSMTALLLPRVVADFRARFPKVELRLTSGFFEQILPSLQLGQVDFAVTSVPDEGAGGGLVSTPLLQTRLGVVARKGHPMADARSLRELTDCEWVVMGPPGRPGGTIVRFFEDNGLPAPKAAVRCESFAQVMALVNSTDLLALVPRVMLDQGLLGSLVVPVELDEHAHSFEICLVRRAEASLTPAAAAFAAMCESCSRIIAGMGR

[4] = tested on: BhbR2 (MarR-family regulator) (Pigmentiphaga kullae H8); experiment: SPR; conditions: EMSA BhbR1: 100 mM Tris-HCl pH 8.0, 50 mM KCl, 5% glycerol, 1 mM DTT, BhbR2: 50 mM Tris-HCl pH 8.0, 30 mM KCl, 1 mM EDTA, 5 mM DTT, 25 C, 30 min. …
[5] = tested on: BhbR1 (LysR-type regulator) (Pigmentiphaga kullae H8); experiment: SPR; conditions: EMSA BhbR1: 100 mM Tris-HCl pH 8.0, 50 mM KCl, 5% glycerol, 1 mM DTT, BhbR2: 50 mM Tris-HCl pH 8.0, 30 mM KCl, 1 mM EDTA, 5 mM DTT, 25 C, 30 min. …
[6] = tested on: T3, BhbR1 (LysR-type regulator) (Pigmentiphaga kullae H8), ORF:3710a82b; experiment: EMSA; conditions: EMSA BhbR1: 100 mM Tris-HCl pH 8.0, 50 mM KCl, 5% glycerol, 1 mM DTT, BhbR2: 50 mM Tris-HCl pH 8.0, 30 mM KCl, 1 mM EDTA, 5 mM DTT, 25 C, 30 min. …
[7] = tested on: T4, BhbR2 (MarR-family regulator) (Pigmentiphaga kullae H8), ORF:e62c0bd9; experiment: EMSA; conditions: EMSA BhbR1: 100 mM Tris-HCl pH 8.0, 50 mM KCl, 5% glycerol, 1 mM DTT, BhbR2: 50 mM Tris-HCl pH 8.0, 30 mM KCl, 1 mM EDTA, 5 mM DTT, 25 C, 30 min. …
T4 sequence: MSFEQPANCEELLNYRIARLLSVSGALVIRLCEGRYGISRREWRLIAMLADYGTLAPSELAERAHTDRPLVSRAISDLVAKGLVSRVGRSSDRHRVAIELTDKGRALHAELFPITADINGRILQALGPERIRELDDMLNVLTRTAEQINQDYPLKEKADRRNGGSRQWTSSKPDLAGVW

[8] = tested on: T4, BhbR2 (MarR-family regulator) (Pigmentiphaga kullae H8), ORF:e62c0bd9; experiment: SPR; conditions: EMSA BhbR1: 100 mM Tris-HCl pH 8.0, 50 mM KCl, 5% glycerol, 1 mM DTT, BhbR2: 50 mM Tris-HCl pH 8.0, 30 mM KCl, 1 mM EDTA, 5 mM DTT, 25 C, 30 min. …
[9] = target: LysR-type transcriptional regulator BhbR1 (Pigmentiphaga kullae strain H8); experiment: SEC; gel filtration on Superose 6 10/300 GL, 25°C, PBS pH 7.8, 0.4 mL/min, calibrated with protein molecular weight markers; oligomeric state of the purified regulator
[10] = target: MarR-family transcription factor BhbR2 (Pigmentiphaga kullae strain H8); experiment: as above

## O=C(O)c1ccc(O)c(Br)c1 [3-Br-4-HB, 3-bromo-4-hydroxybenzoate]
[1]
  Kd: 2100 nM
[2]
  Kd: 2200 nM

## ACCAGCAAGGAACGTGCCCCGTGATCCGCGGTTGCTGATAGCAAACCGTTATCGAGATAAGGAAAAACTGGCTTTTCGCTGTGCGCGTGGATCGTGATACTGCCGCCGGGCCTGGATGAACGGGCCCGGCAACGGAACTACGAC (double strand) [Fphbh1 (Fpbhb1)]
[3]
  Kd: 0.7 nM and 1.2 nM

## FpcaA2
[4]; 5 uM 3-Br-4-HB
  Kd: 259 nM
[4]; no inducer
  Kd: 397 nM

## Fphbh1 (Fpbhb1)
[5]; 5 uM 3-Br-4-HB
  Kd: 1.2 nM
[5]; no inducer
  Kd: 0.7 nM

## GAACTCGAGGTGCTGTCGATTTGTGCCATGTTGATCTCCTTCATGGACGCCGGCGGCTTCCACGCCTGCGTCCGGGGACGAGAAACTGCGGAAGCGTCGGGATACCAGCAAGGAACGTGCCCCGTGATCCGCGGTTGCTGATAGCAAACCGTTATCGAGATAAGGAAAAACTGGCTTTTCGCTGTGCGCGTGGATCGTGATACTGCCGCCGGGCCTGGATGAACGGGCCCGGCAACGGAACTACGACCCACGACTAGTTTC (double strand) [PbR1 (Pphbh1 promoter probe, EMSA)]
[6]
  binding: binds

## GAACTCGAGTGATGCCGTAGCGGCCTTCGCACAACCGGATCACCAGCGCCCCGCTGACCGACAGCAGCCTGGCTATCCGGTAGTTCAGGAGTTCCTCGCAATTTGCGGGCTGCTCGAAGGACATGGCTGCTCCTGTGCCGACGGCGGTTGATTAGAACAATCAAGGACATGAAAGCTAGAGTCATTCTCCATAAAAAGCCCAGCAGCCGCAACGCCATACGCCGGCGCGGCCCTGGTCGTTTTCCCTCTACCCAAGGAGCATTGCCCACTAGTTTC (double strand) [PbR2 (PpcaA2 promoter probe, EMSA)]
[7]
  binding: binds

## GGGCAATGCTCCTTGGGTAGAGGGAAAACGACCAGGGCCGCGCCGGCGTATGGCGTTGCGGCTGCTGGGCTTTTTATGGAGAATGACTCTAGCTTTCATGTCCTTGATTGTTCTAATCAACCGCCGTCGGCACAGGAGCAGCCATGTCCTTCG (double strand) [FpcaA2]
[8]
  Kd: 397 nM and 259 nM

## LysR-type transcriptional regulator BhbR1 (natural protein)
[9]
  stoichiometry N: 4

## MarR-family transcription factor BhbR2 (natural protein)
[10]
  stoichiometry N: 2

## TAATCCGACATCGGCCGCTCCAATAGTGAGAGGTCTTGCGATCCCCCCCTTTCCCCCGTAGGGCGTATGCGGTATTAGCTACGCTTTCGCGTAGTTATCCCCCGCTACTGGGCACGTTCCGATGCATTACTCACCCGTTCGCCACTCGCCGC (double strand) [Pb16S]
[6]
  binding: no binding
[7]
  binding: no binding
